Results reported in the supplement of paper PMC11136658.

Tested on: peptide library, one residue held at a place counted from the Y acceptor
Assay: relative phosphorylation of the sub-library (ratio to the mean residue at this position); higher = residue favoured
Procedure, shortened: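 Within 384-well plates, purified recombinant kinases phosphorylated biotinylated Tyr-centred peptide library mixtures over 90 min using 50 μM ATP spiked with γ-32P-ATP; each mixture fixed one residue at one position from −5 to +5. Streptavidin membrane capture, rinsing, phosphorimaging and ImageQuant gave the intensities. These were normalized per position to the sum of the 18 randomized residues (16 for the Ser/Thr-free library) and multiplied by that number.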

FGFR3, construct: aa397-end, human, sequence (P22607 397-806, looked up): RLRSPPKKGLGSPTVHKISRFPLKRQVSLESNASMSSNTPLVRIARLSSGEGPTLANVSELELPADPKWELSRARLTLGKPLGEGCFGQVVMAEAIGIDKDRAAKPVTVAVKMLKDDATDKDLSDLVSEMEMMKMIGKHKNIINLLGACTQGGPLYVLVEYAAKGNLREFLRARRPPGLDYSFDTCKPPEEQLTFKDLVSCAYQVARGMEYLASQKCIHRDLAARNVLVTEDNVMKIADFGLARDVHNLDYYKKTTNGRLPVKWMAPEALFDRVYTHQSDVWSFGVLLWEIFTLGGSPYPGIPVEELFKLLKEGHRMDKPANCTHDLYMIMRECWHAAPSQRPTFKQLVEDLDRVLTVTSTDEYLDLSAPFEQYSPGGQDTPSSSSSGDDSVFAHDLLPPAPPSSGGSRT

FGFR3, construct: aa397-end, human (from UniProt P22607)
relative phosphorylation
Conditions | at +1 | at +2 | at +3 | at +4 | at +5 | at -1 | at -2 | at -3 | at -4 | at -5
A fixed | 0.858 | 0.5 | 0.465 | 0.794 | 1.13 | 0.737 | 0.867 | 0.899 | 1.1 | 0.986
D fixed | 0.4 | 1.08 | 0.618 | 1.07 | 1.09 | 2.51 | 1.3 | 1.51 | 1.22 | 1.19
E fixed | 0.764 | 1.5 | 0.479 | 1.15 | 0.944 | 1.71 | 1.58 | 1.73 | 1.42 | 1.01
F fixed | 1.96 | 1.73 | 1.58 | 1.17 | 1.08 | 0.94 | 0.733 | 0.807 | 0.933 | 0.929
G fixed | 0.32 | 0.27 | 0.378 | 0.913 | 1.22 | 0.452 | 1.05 | 0.939 | 1.25 | 1.15
H fixed | 1.7 | 0.959 | 0.873 | 1.1 | 0.962 | 1.47 | 1.2 | 1.17 | 1.07 | 1.2
I fixed | 1.19 | 0.857 | 2.07 | 0.872 | 0.763 | 1.1 | 0.57 | 0.533 | 0.738 | 0.651
K fixed | 0.452 | 0.502 | 0.297 | 0.913 | 0.753 | 0.438 | 1.05 | 0.976 | 0.935 | 1.27
L fixed | 1.01 | 1.46 | 2.18 | 0.962 | 0.881 | 1.05 | 0.863 | 0.663 | 0.759 | 0.75
M fixed | 1.17 | 1.46 | 2.26 | 1.06 | 1.05 | 0.766 | 0.761 | 0.747 | 0.901 | 0.854
N fixed | 0.458 | 1.01 | 0.416 | 0.828 | 0.943 | 1.33 | 1.24 | 1.35 | 0.924 | 1.15
P fixed | 1.1 | 0.528 | 0.562 | 1.13 | 1.22 | 0.786 | 0.951 | 0.904 | 1.2 | 1.08
Q fixed | 0.865 | 0.85 | 0.68 | 1.05 | 0.923 | 0.896 | 1.14 | 1.01 | 1.1 | 1.01
R fixed | 0.577 | 0.607 | 0.428 | 0.953 | 0.814 | 0.396 | 1.1 | 1.04 | 1.01 | 1.27
S fixed | 0.709 | 0.566 | 0.481 | 0.931 | 1.07 | 0.614 | 1.09 | 1.17 | 0.867 | 0.971
T fixed | 0.867 | 0.712 | 0.604 | 0.814 | 1.03 | 0.797 | 1.01 | 0.946 | 0.704 | 0.82
V fixed | 1.59 | 0.952 | 1.61 | 0.948 | 0.939 | 0.885 | 0.732 | 0.595 | 0.7 | 0.682
W fixed | 2 | 2.47 | 2.02 | 1.34 | 1.18 | 1.14 | 0.767 | 1.02 | 1.17 | 1.02
pThr fixed | 0.874 | 1.88 | 0.666 | 0.864 | 0.943 | 1.61 | 1.28 | 1.44 | 1.2 | 1.16
pTyr fixed | 3.07 | 3.28 | 0.631 | 0.962 | 1 | 3.24 | 1.85 | 1.83 | 1.55 | 1.31
